Results as given in the nanobody polyreactivity screen of Harvey et al. (2022).

Assay: yeast display, Sf9 membrane polyspecificity reagent, FACS + sequencing; frameworks hold sequencing errors
Summary of the method: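 Genes from sorted yeast were amplified by colony PCR, read by MiSeq 2 × 250 sequencing and filtered on CDR length. These cells carried a synthetic nanobody library in Saccharomyces cerevisiae BJ5465 and were sorted by FACS into low and high (top ~1%) gates on anti-HA and streptavidin fluorescence. Polyreactivity is labelled according to the gate of origin.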

| Sequence | polyreactivity (PSR sort gate) |
| --- | --- |
| QVQLVESGGGLVQAGGSLRLSCAASGSIFGWYAMGWYRQAPGKERELVATISSGGSTSYADSVKGRFTISRDNAKNTVYLQMKSLKPEDTAVYYCAADIYPDWIYLLYGYWGQGTQVTVSS | low polyreactivity |
| QVQLVESGGGLVQAGGSLRLSCAASGSIFGWYVMGWYRQAPGKERELVAAISSVGSTYYADSVKGRFTISRDNAKNTVYLQMNSLKPEDTAVYYCAADRVWGTPQAYVPSQFDYWGQGTQVTVSS | low polyreactivity |
| QVQLVESGGGLVQAGGSLRLSCAASGSIFGYEMGWYRQAPGRERELVAAISFSGVSTYYADSVKGRFTISRDNAKNTVYIQMNSLKQEDTAVYNCNAYSDGDEDYWVQGTQVTVSS | low polyreactivity |
| QVQLVESGGGLVQAGGSLRLSCAASGSIFGYNAMGWYRQAPGKERELVAAISLTTGSTYYADSVKGRFTISRDNAKNTVYLQMNCLNPEDTAVYYCAAVDADYYYWGQGTQVTVSS | high polyreactivity |
| QVQLVESGGGLVQAGGSLRLSCAASGSIFGYNVMGGDRQAPGKEREFVARINYIGSSTYYADSVKGRFTISRDNAKNTVYLQMNSLKPEDTADYYCNADNARGRSGVRRYYWGQGTQVTVSS | high polyreactivity |
| QVQLVESGGGLVQAGGSLRLSCAASGSIFGYVMGWSRQAPGKERELVAAISSGGSTDYADSVKGRFTISRDNAKNTVYLQMNSLKPEDTAVYYCAADTDNGYTYYYWGQGTQVTVSS | low polyreactivity |
| QVQLVESGGGLVQAGGSLRLSCAASGSIFGYYAMGCYRQAPGKERELVAAITNGGSTSYADSVKGRFTISRDNAKNTVDLQMNSLKPEETSVYYCNARFKRLFGRADDYWGQGTQVTVSS | low polyreactivity |
| QVQLVESGGGLVQAGGSLRLSCAASGSIFGYYAMGGYRQAPGKERELVAAISVNGGRTYYADSVKGRFTISRDNAKNTVYLQMNSLKPEDTAVYYCAAELVDYITFRGDYYYWGQGTQVTVSS | high polyreactivity |
| QVQLVESGGGLVQAGGSLRLSCAASGSIFGYYAMGWYRPAPGKERQLVAAIDSRGGSTYYADSVKGRFTISRDYEKNTVYLQMNSLKPEDTAVYYWAARLRYPRRGQGDNYWGQGTQVTVSS | low polyreactivity |
| QVQLVESGGGLVQAGGSLRLSCAASGSIFGYYAMGWYRQAPGKERELVAAIDSGGVSTYYADSVKGRFTISRDIAKNTVYLQMNSLKAEDTAVYYCAKRGPVRKTAYDYWGQGTQVTVSS | low polyreactivity |
| QVQLVESGGGLVQAGGSLRLSCAASGSIFGYYAMGWYRQAPGKERELVAAISRRGGRTYYADSVKGRFTISRDNAKNTVYLQMNSLKPEDTAVYYCAAAVSVSASPYTGFDYWGQGTQVTVSS | high polyreactivity |
| QVQLVESGGGLVQAGGSLRLSCAASGSIFGYYAMGWYRQAPGKERELVAAISYRGGSTYYADSVKGRFTISRDNAKNTVYLQMNSLKPEDTAVYYCNAPFLGAHHYGYEYWGQGTQVTVSS | high polyreactivity |
| QVQLVESGGGLVQAGGSLRLSCAASGSIFGYYAMGWYRQAPGKERELVAAITRGARTYYADSVKGRFTISRDNAKNTVYLQMNSLKPEDTAFYYCNRVPYYEGGNGSWGQGTQVTVSS | high polyreactivity |
| QVQLVESGGGLVQAGGSLRLSCAASGSIFGYYAMGWYRQAPGKERELVASISGSGGTTYYADSVKGRFTISRDNAKNTVYLQMNSLKPEDTAVYYCAARRSMYGYPFVTSRRGYWGHGTQVTVSS | high polyreactivity |
| QVQLVESGGGLVQAGGSLRLSCAASGSIFGYYAMGWYRQAPGKERELVATITWGGGSTYADSVKGRFTISRDNAKNTVYLQMNSLKPEDTAVYYCNAGYRYTSAQVTWEYDYWGQGTQVTVSS | low polyreactivity |
| QVQLVESGGGLVQAGGSLRLSCAASGSIFGYYAMGWYRQAPGTERELVAAITTGGSTSYADSVKGRFTISRDNAKNTVYLQMNSLKPEDTAVYYCAARPHHGWLEYGSAGLGYWGQGTQVTVSS | low polyreactivity |
| QVQLVESGGGLVQAGGSLRLSCAASGSIFGYYAMGWYRQAPGTERELVATITWGGGSTYADSVKGRFTISRDNAKNTVYLQMNSLKPEDTAVYYCNAGYRYTSAQVTWEYDSWGQGTQVTVSS | low polyreactivity |
| QVQLVESGGGLVQAGGSLRLSCAASGSIFGYYAMGWYTLAPGKERELVASISFSGGSTYYADSVKGRFTISRDNAKNTVYLQMNSLKPEDTAVYYCAKRPRFVYWKHGYWGQGTQVTVSS | high polyreactivity |
| QVQLVESGGGLVQAGGSLRLSCAASGSIFGYYAMVWKRQAPGKESELVAAMNYSGVSTYYADSVKGRFTISRDNAKNTVYLQMNSLKPEDSAVYYCARDIRRKGFRYDYWGQGTQVTVSS | high polyreactivity |
| QVQLVESGGGLVQAGGSLRLSCAASGSIFGYYARGWYRQASGKESELVADITSSGSTYYADSVKGRFTISRDNAKNTVYLQMNSLKPEDTAVYYCAADQYFLGSIDGFEYWGQRTQVTVSS | low polyreactivity |

| Sequence | polyreactivity (PSR sort gate) |
| --- | --- |
| QVQLVESGGGLVQAGGSLRLSCAASGSIFGYYDMGWYRQAPGKEREFVAASTFRGGRTYYADSVKGRFTISRDNEKNTVYIQMYSLKPEDTAVDFCAAGYHHRWGNYWGQGTQVTVSS | high polyreactivity |
| QVQLVESGGGLVQAGGSLRLSCAASGSIFGYYSMGWYRQAPGKERELVATITWGGGSTYADSVKGRFTISRDNAKNTVYLQMNSLKPEDTAVYYCNAGYRYTSAQVTWEYDYWGQGTQVTVSS | low polyreactivity |
| QVQLVESGGGLVQAGGSLRLSCAASGSIFGYYSMGWYRQATGKERELVATITWGGGSTYADSVKGRFTISRDNAKNTVYLQMNSLKPEDTAVYYCNAGYRYTSAQVTWEYDYWGQGTQVTVSS | low polyreactivity |
| QVQLVESGGGLVQAGGSLRLSCAASGSIFHPYAMGWYRQAPGKERELVAAISSSTGRTYYADSVKGRFTISRDNAKNTVYLQMNSLKPEDTAVYYCAARKKYSEFDYWGQGTQVTVSS | high polyreactivity |
| QVQLVESGGGLVQAGGSLRLSCAASGSIFHPYTMGWSRQAPGKERELVAAISWSGGRTYYADSVKGRFTISRDNAKNTVYLQMNSLKPEDTAVYYCAADVTLWYDSWGQGTQVTVSS | low polyreactivity |
| QVQLVESGGGLVQAGGSLRLSCAASGSIFHSYAMGWYRQAPGKEREFVASITQRVGRTNYADSVKGRFTISRDNAKNTVYLQMISLKPEDTAVYYCAASSWRLYYRRDSWGQGTQVTVSS | high polyreactivity |
| QVQLVESGGGLVQAGGSLRLSCAASGSIFHSYAQGWYRQAPGKERELVASITASGDSTYYADSVKGRFTISRDNAKNTVYLQMNSLKPEDTAVYYCNTQAVYGGGEGGYDYWGQGTQVTVSS | low polyreactivity |
| QVQLVESGGGLVQAGGSLRLSCAASGSIFHYYAMGWYRQAPGKERELVAAISWSGGRTNYADSVKGRFTISRDNAKNTVYLQMNSLKPEDTAVYYCAAAERSYSGGGKIGKYYWGQGTQVTVSS | high polyreactivity |
| QVQLVESGGGLVQAGGSLRLSCAASGSIFHYYAMGWYRQAPGKVRELVAAISSVGSTYYADSVKGRFTISRDYAKNTVYLQMNSLKPEDTAVYYCAAEAYAKRYVDRYSWYYYWGQGTQVTVSS | high polyreactivity |
| QVQLVESGGGLVQAGGSLRLSCAASGSIFIANAMGWYRQAPGKERELVAAISSSDSSTYYADSVKGRFTISRDNAKNTVYLQMNSLKPEDTAVYYCAATYWYWYREGYYWGQGTQVTVSS | high polyreactivity |
| QVQLVESGGGLVQAGGSLRLSCAASGSIFIAYTMGWYRQAPGKERELVAAISQSGGGTHYADSVKGRFTISRDNAKNTVYLQMNSLKPEDTAVYYCAADRPATSDYTGYDYWGQGTQVTVSS | low polyreactivity |
| QVQLVESGGGLVQAGGSLRLSCAASGSIFIDNAMGWDRQAPGKEREFVAAISKSGTSTYYADSVKGRFTISRDNAKNTVYLQMNSLKPEDTAVYYCAVRRPRPYSNYYYWGQGTQVTVSS | high polyreactivity |
| QVQLVESGGGLVQAGGSLRLSCAASGSIFIDNAMGWYRQAPGKERELVAAITVRGASTNYADSVKGRFTISRDIAKNTVYLQMNSLKPEDTAVYYCNAVGLRSPWHQDFLIRYDYWGQGTQVTVSS | low polyreactivity |
| QVQLVESGGGLVQAGGSLRLSCAASGSIFIGSVMGWYRQAPGKERELVADITWSGGSTYYADSVKGRFTISRANAKNTVYLQMNSLKPEDTAVYYCAARTFVIGDYDYWYALDSWGQGTQVTVSS | low polyreactivity |
| QVQLVESGGGLVQAGGSLRLSCAASGSIFIGYAMGWYRQAPGKERELVASIRNGGSTNYADSVKGRFTISRDNAKNTVYLQMNSLKPEDTAVYYCAGRYPVFLVSFGFDYWGQGTQVTVSS | low polyreactivity |
| QVQLVESGGGLVQAGGSLRLSCAASGSIFIIYAMGRYRQAPGKERELVAAIRGRGGSTYYADSVKGRFTISRDKAKNTVYLEMNSLNPEDSAVYYCAASVDRGYNYWGEGTQVTVSS | high polyreactivity |
| QVQLVESGGGLVQAGGSLRLSCAASGSIFILYAMGWYRQAPGKERELVAAISSTGTTYYADSVKGRFTISRDNAKNTVYLQMNSLKPEDSAVYYCAADIYPDWIYLLYGYWGQGTQVTVSS | low polyreactivity |
| QVQLVESGGGLVQAGGSLRLSCAASGSIFILYMGWYRQAPGKERELVATISSGGSTNYADSVKGRFTISRDNAKNTVYLQMNSLKPEDTAVYYCNARGSERVDTYSLYDYWGQGTQVTVSS | low polyreactivity |
| QVQLVESGGGLVQAGGSLRLSCAASGSIFIPNAMGWYRQAPGKERELVAAISLSDTTTYYADSVKGRFTISRDNAKNTVYLQMNSLKPEDTAVYYCNKLTYGRVWDHHYDYWGQGTQVTVSS | low polyreactivity |
| QVQLVESGGGLVQAGGSLRLSCAASGSIFIPNAMGWYRQAPGTERELVAAISLSDTTTYYADSVKGRFTISRDNAKNTVYLQMNSLKPEDTAVYYCAADYWFYPTSPDMDYWGQGTQVTVSS | low polyreactivity |
